According to the Immune Epitope Database (IEDB):

Legend:
[1] = biological target: HLA-B*08:01; test: IEDB peptide-MHC binding, purified MHC/competitive/radioactivity; filed as Kd, often an IC50 or EC50 that approximates it; ≥ and ≤ were set here for values at or beyond the usual limits of such assays
[2] = biological target: HLA-A*26:01; test: as above
[3] = biological target: HLA-A*01:01; test: as above
[4] = biological target: HLA-A*30:02; test: as above
[5] = biological target: HLA-A*23:01; test: as above
[6] = biological target: HLA-A*24:02; test: as above
[7] = biological target: HLA-A*29:02; test: as above
[8] = biological target: HLA-B*15:01; test: as above; details: source organism: Vaccinia virus WR
[9] = biological target: HLA-A*24:03; test: IEDB peptide-MHC binding, purified MHC/direct/fluorescence; filed as Kd, often an IC50 or EC50 that approximates it; ≥ and ≤ were set here for values at or beyond the usual limits of such assays
[10] = biological target: HLA-A*01:01; test: as above; details: source organism: SARS-CoV1
[11] = biological target: HLA-B*15:01; test: as above; details: source organism: SARS-CoV1
[12] = biological target: HLA-B*58:01; test: as above; details: source organism: SARS-CoV1
[13] = biological target: HLA-A*31:01; test: IEDB peptide-MHC binding, purified MHC/competitive/radioactivity; filed as Kd, often an IC50 or EC50 that approximates it; ≥ and ≤ were set here for values at or beyond the usual limits of such assays
[14] = biological target: HLA-A*33:01; test: as above
[15] = biological target: HLA-A*03:01; test: as above
[16] = biological target: HLA-A*11:01; test: as above
[17] = biological target: HLA-A*68:01; test: as above
[18] = biological target: HLA-A*02:02; test: as above
[19] = biological target: HLA-A*02:06; test: as above
[20] = biological target: HLA-A*02:03; test: as above
[21] = biological target: HLA-A*02:01; test: IEDB peptide-MHC binding, purified MHC/competitive/fluorescence; filed as Kd, often an IC50 or EC50 that approximates it; ≥ and ≤ were set here for values at or beyond the usual limits of such assays; details: source organism: Variola virus
[22] = source organism: Dengue virus 3 Martinique/1243/1999
[23] = source organism: SARS coronavirus Tor2
[24] = source organism: Vaccinia virus WR
[25] = source organism: Dengue virus 4 Philippines/H241/1956
[26] = source organism: Triticum aestivum
[27] = source organism: Mammarenavirus guanaritoense
[28] = source organism: Mammarenavirus lassaense
[29] = source organism: Dengue virus 2 Jamaica/1409/1983
[30] = source organism: Influenza A virus (A/Ann Arbor/6/1960(H2N2))

| Sequence | Kd [2, 23] [µM] | Kd [3, 23] [µM] | Kd [4, 23] [µM] | Kd [5, 23] [µM] | Kd [6, 23] [µM] | Kd [7, 23] [µM] | other results |
| --- | --- | --- | --- | --- | --- | --- | --- |
| SLLFKTASG |  |  |  |  |  |  | Kd [1, 22]: 0.534 µM |
| QLAKRFSRG |  |  |  |  |  |  | Kd ([1]; source organism: Dengue virus 3 Singapore/8120/1995): 1.28 µM |
| HAQRIETWIL |  |  |  |  |  |  | Kd ([1]; source organism: Dengue virus 2 Peru/IQT2913/1996): 1.15 µM |
| NKDGFLYVY | 14.3 | 13.9 | 2.83 | ≥ 77.8 | ≥ 77.6 | 1.13 |  |
| ANITHFCSF |  |  |  |  |  |  | Kd [8]: 0.015 µM; Kd [1, 24]: 10.6 µM |
| FNKGHFTRL |  |  |  |  |  |  | Kd ([1]; source organism: Vaccinia virus Copenhagen): 0.0163 µM |
| PYPDPSRIL | ≥ 77.9 | ≥ 78.1 | ≥ 75 | 19.8 | ≥ 83.3 | ≥ 35.9 |  |
| HRRDLRLASM |  |  |  |  |  |  | Kd [1, 25]: 0.0112 µM |
| LFCLLNRYF | 1.14 | 3.44 | ≥ 81.1 | ≥ 70 | ≥ 77.6 | ≥ 40.4 |  |
| PFVVSTGYHF | 0.974 | 4.89 | 11.8 | 0.00303 | 0.0679 | 0.257 |  |
| FVMFGFCYL |  |  |  |  |  |  | Kd [1, 24]: 0.865 µM |
| KYLPNGDYI |  |  |  |  |  |  | Kd ([9]; source organism: Vibrio parahaemolyticus): 0.0129 µM |
| LKEPCPSGTY | 5.44 | 14.1 | 0.0698 | ≥ 70 | ≥ 70.3 | 1.56 |  |
| RKLTSRETAL |  |  |  |  |  |  | Kd [1, 25]: 0.178 µM |
| FTERSDKSY | 6.23 |  | 0.0535 | ≥ 77.8 | ≥ 77.6 | 0.0685 | Kd [10]: 0.065 µM; Kd [11]: 0.497 µM; Kd [12]: 2.8 µM |
| AFLPFTLGI | ≥ 77.9 | ≥ 78.1 | 8.04 | ≥ 45.8 | ≥ 81.8 | 0.529 |  |
| NTCDGNTFTY | ≥ 77.9 | ≥ 89.3 | ≥ 125 | 5.34 | 5.75 | ≥ 26 | Kd [13, 23]: 0.0334 µM; Kd [14, 23]: 13.2 µM; Kd [15, 23]: 0.00225 µM; Kd [16, 23]: 0.0236 µM; Kd [17, 23]: 1.06 µM |
| VSFQQPQQQY |  |  |  |  |  |  | Kd [13, 26]: ≥ 70 µM; Kd [14, 26]: ≥ 70 µM; Kd [15, 26]: ≥ 70.1 µM; Kd [2, 26]: ≥ 26.1 µM; Kd [16, 26]: 1.77 µM; Kd [4, 26]: 0.000209 µM; Kd [5, 26]: ≥ 38.8 µM; Kd [6, 26]: ≥ 70.3 µM; Kd [17, 26]: ≥ 70.2 µM; Kd [7, 26]: 0.0555 µM |
| VFQPSTGNYV |  |  |  |  |  |  | Kd [2, 27]: ≥ 69.7 µM; Kd [3, 27]: ≥ 70.4 µM; Kd [4, 27]: 1.01 µM; Kd [5, 27]: 5.66 µM; Kd [6, 27]: 1.53 µM; Kd [7, 27]: ≥ 31.6 µM |
| AGFTAGLSY |  |  |  |  |  |  | Kd [2, 28]: ≥ 77.9 µM; Kd [3, 28]: ≥ 21.1 µM; Kd [4, 28]: 0.149 µM; Kd [5, 28]: ≥ 69.9 µM; Kd [6, 28]: ≥ 77.5 µM; Kd [7, 28]: 0.0604 µM |
| LTIPPTAGIL |  |  |  |  |  |  | Kd [1, 29]: 1.1 µM |

| Sequence | Kd [2, 23] [µM] | Kd [3, 23] [µM] | Kd [4, 23] [µM] | Kd [5, 23] [µM] | Kd [6, 23] [µM] | Kd [7, 23] [µM] | other results |
| --- | --- | --- | --- | --- | --- | --- | --- |
| SAEMRLLSI |  |  |  |  |  |  | Kd [1, 24]: 0.0205 µM |
| LYIIKLVFL | ≥ 21 | 2.15 | 13.5 | 0.000179 | 0.000268 | 3.11 |  |
| HYVRITGLY | 0.149 | 18.2 | ≥ 27.6 | 7.53 | ≥ 22.7 | 0.111 |  |
| NLRCHSAHV |  |  |  |  |  |  | Kd [18, 24]: 0.384 µM; Kd [19, 24]: 8.03 µM; Kd [1, 24]: 0.00124 µM; Kd [20, 24]: 0.011 µM |
| SLLKNDVPL |  |  |  |  |  |  | Kd ([1]; source organism: Dengue virus 1 Brazil/97-11/1997): 0.124 µM |
| ILCVPNAVIL |  |  |  |  |  |  | Kd [1, 29]: 5.54 µM |
| LHRMDLGVPL |  |  |  |  |  |  | Kd [1, 25]: 1.01 µM |
| RQEMASRGLW |  |  |  |  |  |  | Kd [2, 30]: ≥ 69.7 µM; Kd [3, 30]: ≥ 70.4 µM; Kd [4, 30]: 4.35 µM; Kd [5, 30]: 1.73 µM; Kd [6, 30]: 9.01 µM; Kd [7, 30]: 1.88 µM |
| IYNEKVAGF | 3.55 | ≥ 78.1 | ≥ 22.7 | 19.7 | ≥ 26.6 | 19.8 |  |
| WKTWGKAKML |  |  |  |  |  |  | Kd [1, 29]: 3.8 µM |
| VYDPLQPEL | ≥ 77.9 | ≥ 78.1 | 0.302 | 12.8 | ≥ 44.8 | 0.00842 |  |
| ERLQRKHGGM |  |  |  |  |  |  | Kd [1, 22]: 0.0922 µM |
| YYFMKFRRVF | 1.75 | 3.18 | ≥ 22.2 | 0.00151 | 0.00392 | 0.0028 |  |
| MLKRERNRV |  |  |  |  |  |  | Kd [1, 29]: 0.0529 µM |
| SMHFYGWSL |  |  |  |  |  |  | Kd [21]: 0.303 µM; Kd [8]: 0.063 µM; Kd [1, 24]: 0.00285 µM |
| LTKHPNQEY | ≥ 34.3 | 17.3 | 0.153 | ≥ 77.8 | ≥ 77.6 | 3.4 |  |
| NMLRIMASL | 18.2 | ≥ 26.3 | ≥ 100 | 10.9 | ≥ 32.2 | ≥ 36.9 | Kd [18, 23]: 0.0034 µM; Kd [19, 23]: 0.05 µM; Kd [20, 23]: 0.0375 µM |
| LFFFVYENAF | 14.5 | 9.72 | ≥ 51.1 | 0.0588 | 0.185 | 0.107 |  |
| IQPQWIAASI |  |  |  |  |  |  | Kd [1, 25]: 0.858 µM |
| TFHLSIPNF |  |  |  |  |  |  | Kd [9, 28]: 0.0345 µM |
| IKTTAKEVAL |  |  |  |  |  |  | Kd [1, 25]: 4.46 µM |
